Laboratory results reported in patent US20220195068A1 (TENEOBIO, published 2022).
Each block holds one binder with its values, some of them ahead of it.

Legend:
[1] = target: T1, human PSMA (Prostate Specific Membrane Antigen, Glutamate Carboxypeptidase II) on cells (human, UniProt Q04609 1-750); assay: cell-based or functional assay
[2] = target: T1, human PSMA (Prostate Specific Membrane …); assay: flow cytometry cell binding, PC3-PSMA cells
[3] = target: T1, human PSMA (Prostate Specific Membrane …); assay: flow cytometry cell binding, LNCAP cells
[4] = target: T1, human PSMA (Prostate Specific Membrane …); assay: flow cytometry cell binding, MDA-PCa-2b cells
[5] = target: T1, human PSMA (Prostate Specific Membrane …); assay: flow cytometry cell binding, 22Rv1 cells
[6] = target: T1, human PSMA (Prostate Specific Membrane …); assay: flow cytometry on LNCaP cells
Description: Briefly, 50,000 target cells were stained with a dilution series of purified UniAbs™ for 30 minutes at 4° C. Following incubation, the cells were washed twice with flow cytometry buffer (1X PBS, 1% BSA, 0.1% NaN₃) and stained with goat F(ab')₂ anti-human IgG conjugated to R-phycoerythrin (PE) (Southern Biotech, cat. #2042-09) to detect cell-bound antibodies. After a 20-minute incubation at 4° C., the cells were washed twice with flow cytometry buffer and the mean fluorescence intensity (MFI) was measured by flow cytometry. The MFI of cells stained with secondary antibody alone were used for determination of background signal and binding of each antibody was converted to fold over background. Binding to cynomolgus PSMA positive cells was determined using the same protocol with the following modifications: the target cells were from Freestyle 293-F cells (ThermoFisher R79007) transiently transfected to express the extracellular domain of cynomolgus PSMA. In some experiments EC50 values were calculated using GraphPad Prism 7.

T1 sequence (Q04609 whole entry): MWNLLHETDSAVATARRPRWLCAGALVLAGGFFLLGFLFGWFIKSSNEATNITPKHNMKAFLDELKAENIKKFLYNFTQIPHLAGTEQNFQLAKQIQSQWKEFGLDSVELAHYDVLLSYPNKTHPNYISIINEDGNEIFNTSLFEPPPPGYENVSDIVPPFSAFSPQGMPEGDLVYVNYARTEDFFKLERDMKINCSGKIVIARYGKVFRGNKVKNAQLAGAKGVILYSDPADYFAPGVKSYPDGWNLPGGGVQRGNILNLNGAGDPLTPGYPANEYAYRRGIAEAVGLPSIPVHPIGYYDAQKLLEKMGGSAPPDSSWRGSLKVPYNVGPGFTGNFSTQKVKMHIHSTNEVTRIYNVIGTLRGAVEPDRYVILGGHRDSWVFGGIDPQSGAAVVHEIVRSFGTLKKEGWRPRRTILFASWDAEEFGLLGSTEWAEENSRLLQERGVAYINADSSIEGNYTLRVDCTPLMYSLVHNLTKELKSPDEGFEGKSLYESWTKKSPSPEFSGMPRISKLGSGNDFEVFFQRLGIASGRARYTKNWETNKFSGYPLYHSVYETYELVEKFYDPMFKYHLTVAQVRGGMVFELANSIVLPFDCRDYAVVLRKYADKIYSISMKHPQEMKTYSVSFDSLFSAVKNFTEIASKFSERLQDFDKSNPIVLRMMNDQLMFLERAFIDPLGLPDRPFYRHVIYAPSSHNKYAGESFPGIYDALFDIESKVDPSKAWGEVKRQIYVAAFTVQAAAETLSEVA

fold over the background MFI signal [6]: 37 fold over background
B5: anti-PSMA heavy chain antibody clone ID 345509 (antibody, V domains shown)
VH: QVQLVESGGGLVQPGGSLRLSCAASGFSFSSYGMHWVRQAPGKGLEGVAVIWYDGSNKYYADSVKGRFTISRDNSKNTMYLQMNSLRAEDTAVYYCAREPRIGYYYESSGYYSLDYRGQGTLVTVSS
notes: heavy chain-only antibody (UniAb), no light chain

fold over the background MFI signal [6]: 13 fold over background
B6: anti-PSMA heavy chain antibody clone ID 345510 (antibody, V domains shown)
VH: QVQLVESGGGVVQPGRSLRLSCAASGFSFSSYGMHWVRQAPGKGLEWVAVIWYDGSNKYYADSVKGRFTISRDNSKNTMYLQMNSLRAEDTAVYYCAREPRIGYYYESSGYYSLDYRGQGTLVTVSS
notes: as for B5

fold over the background MFI signal [6]: 55 fold over background
B7: anti-PSMA heavy chain antibody clone ID 345508 (antibody, V domains shown)
VH: QVQLVESGGGVVQPGRSLRLSCAASGFSFSSYGMHWVRQAPGKGPEWVAVIWYDGSNRYYADSVKGRFTISRDNSKNTLYLQMNSLRAEDTAVYYCAREPRIGYYYESSGYYSLDYRGQGTLVTVSS
notes: as for B5

Further lines, the binder ahead of its results:

B1: 346181xCD3 monoparatopic PSMAxCD3 bispecific antibody (bispecific antibody, human IgG4 S228P, kappa, F234A L235A)
heavy 1: QLQLQESGPGLVKPSETLSLTCTVSGGSISSSNYFWGWIRQSPGKGLEWIGSIDYSGYTYYNPSLKSRVTISVDTSKNQFSLKLSSVTAADTAVYNCARHKAATADFDYRGQGTLVTVSSESKYGPPCPPCPAPEAAGGPSVFLFPPKPKDTLMISRTPEVTCVVVDVSQEDPEVQFNWYVDGVEVHNAKTKPREEQFNSTYRVVSVLTVLHQDWLNGKEYKCKVSNKGLPSSIEKTISKAKGQPREPQVYTLPPSQEEMTKNQVSLSCAVKGFYPSDIAVEWESNGQPENNYKTTPPVLDSDGSFFLVSRLTVDKSRWQEGNVFSCSVMHEALHNHYTQKSLSLSLGK
heavy 2: EVQLVESGGGLVQPGRSLRLSCAASGFTFDDYAMHWVRQAPGKGLEWVSGISWNSGSIGYADSVKGRFTISRDNAKNSLYLQMNSLRAEDTALYYCAKDSRGYGDYRLGGAYWGQGTLVTVSSASTKGPSVFPLAPCSRSTSESTAALGCLVKDYFPEPVTVSWNSGALTSGVHTFPAVLQSSGLYSLSSVVTVPSSSLGTKTYTCNVDHKPSNTKVDKRVESKYGPPCPPCPAPEAAGGPSVFLFPPKPKDTLMISRTPEVTCVVVDVSQEDPEVQFNWYVDGVEVHNAKTKPREEQFNSTYRVVSVLTVLHQDWLNGKEYKCKVSNKGLPSSIEKTISKAKGQPREPQVYTLPPSQEEMTKNQVSLWCLVKGFYPSDIAVEWESNGQPENNYKTTPPVLDSDGSFFLYSRLTVDKSRWQEGNVFSCSVMHEALHNHYTQKSLSLSLGK
light: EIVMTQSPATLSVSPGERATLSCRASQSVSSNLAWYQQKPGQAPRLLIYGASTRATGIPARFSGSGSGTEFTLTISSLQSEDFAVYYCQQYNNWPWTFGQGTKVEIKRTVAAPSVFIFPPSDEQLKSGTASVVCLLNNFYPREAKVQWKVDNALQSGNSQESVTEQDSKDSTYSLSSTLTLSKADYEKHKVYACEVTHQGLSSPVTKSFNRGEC
notes: three-chain antibody-like molecule; also called monoparatopic molecule
IFNγ EC50, 22Rv1 cells [1]: 174 nM
IFNγ EC50, LNCAP cells [1]: 63 nM
IFNγ EC50, MDA-PCa-2b cells [1]: 116 nM
IFNγ EC50, PC3-PSMA cells [1]: 10.1 nM
IL-2 EC50, LNCAP cells [1]: 575 nM
IL-2 EC50, MDA-PCa-2b cells [1]: 38.5 nM
IL-2 EC50, PC3-PSMA cells [1]: 4.1 nM
Kill EC50, 22Rv1 cells, resting T-cells [1]: 52.8 nM
Kill EC50, LNCAP cells, resting T-cells [1]: 14.6 nM
Kill EC50, MDA-PCa-2b cells, resting T-cells [1]: 23.6 nM
Kill EC50, PC3-PSMA cells, resting T-cells [1]: 3.7 nM
EC50 [2]: 30 nM
EC50 [3]: 17 nM
EC50 [4]: 28 nM
EC50 [5]: 58 nM

B2: 350123xCD3 biparatopic PSMAxCD3 multi-specific antibody (bispecific antibody, human IgG4 S228P, kappa, F234A L235A)
heavy 1: QLQLQESGPGLVKPSETLSLTCTVSGGSISSSNYFWGWIRQSPGKGLEWIGSIDYSGYTYYNPSLKSRVTISVDTSKNQFSLKLSSVTAADTAVYNCARHKAATADFDYRGQGTLVTVSSGGGGSGGGGSQVQLVESGGGVVQPGRSLRLSCAASGFSFSRYGMHWVRQAPGKGLEGVAVIWYDGSNRYYADSVKGRFTISRDNSKNTLYLQMNSLRAEDTAVYYCAREPRIGYYYESSGYYSLDYRGQGTLVTVSSESKYGPPCPPCPAPEAAGGPSVFLFPPKPKDTLMISRTPEVTCVVVDVSQEDPEVQFNWYVDGVEVHNAKTKPREEQFNSTYRVVSVLTVLHQDWLNGKEYKCKVSNKGLPSSIEKTISKAKGQPREPQVYTLPPSQEEMTKNQVSLSCAVKGFYPSDIAVEWESNGQPENNYKTTPPVLDSDGSFFLVSRLTVDKSRWQEGNVFSCSVMHEALHNHYTQKSLSLSLGK
heavy 2: EVQLVESGGGLVQPGRSLRLSCAASGFTFDDYAMHWVRQAPGKGLEWVSGISWNSGSIGYADSVKGRFTISRDNAKNSLYLQMNSLRAEDTALYYCAKDSRGYGDYRLGGAYWGQGTLVTVSSASTKGPSVFPLAPCSRSTSESTAALGCLVKDYFPEPVTVSWNSGALTSGVHTFPAVLQSSGLYSLSSVVTVPSSSLGTKTYTCNVDHKPSNTKVDKRVESKYGPPCPPCPAPEAAGGPSVFLFPPKPKDTLMISRTPEVTCVVVDVSQEDPEVQFNWYVDGVEVHNAKTKPREEQFNSTYRVVSVLTVLHQDWLNGKEYKCKVSNKGLPSSIEKTISKAKGQPREPQVYTLPPSQEEMTKNQVSLWCLVKGFYPSDIAVEWESNGQPENNYKTTPPVLDSDGSFFLYSRLTVDKSRWQEGNVFSCSVMHEALHNHYTQKSLSLSLGK
light: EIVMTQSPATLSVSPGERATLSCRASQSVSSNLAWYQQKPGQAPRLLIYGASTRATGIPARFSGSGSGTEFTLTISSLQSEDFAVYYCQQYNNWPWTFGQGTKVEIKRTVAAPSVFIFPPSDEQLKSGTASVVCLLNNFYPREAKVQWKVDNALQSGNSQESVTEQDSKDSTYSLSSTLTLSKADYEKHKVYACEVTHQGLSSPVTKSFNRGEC
notes: also called biparatopic molecule
IFNγ EC50, 22Rv1 cells [1]: 380 nM
IFNγ EC50, LNCAP cells [1]: 3.29 nM
IFNγ EC50, MDA-PCa-2b cells [1]: 0.9 nM
IFNγ EC50, PC3-PSMA cells [1]: 1.01 nM
IL-2 EC50, LNCAP cells [1]: 3.73 nM
IL-2 EC50, MDA-PCa-2b cells [1]: 1.11 nM
IL-2 EC50, PC3-PSMA cells [1]: 1.1 nM
Kill EC50, 22Rv1 cells, resting T-cells [1]: 0.42 nM
Kill EC50, LNCAP cells, resting T-cells [1]: 0.84 nM
Kill EC50, MDA-PCa-2b cells, resting T-cells [1]: 0.41 nM
Kill EC50, PC3-PSMA cells, resting T-cells [1]: 0.4 nM
EC50 [2]: 6 nM
EC50 [3]: 2 nM
EC50 [4]: 2 nM
EC50 [5]: 3 nM

B3: anti-PSMA heavy chain antibody clone ID 345505 (antibody, V domains shown)
VH: QVQLVESGGGVVQPGRSLRLSCAASGFTFISYGMHWVRQAPGKGLEGVAVIWYDGSNRYYADSVKGRFTISRDNSKNTLYLQMNSLRAEDTAVYYCAREPRIGYYYESSGYYSLDYRGQGTLVTVSS
notes: as for B5
fold over the background MFI signal [6]: 59 fold over background

B4: anti-PSMA heavy chain antibody clone ID 325932 (antibody, V domains shown)
VH: QVQLVESGGGVVQPGRSLRLSCAASGFSFSSYGMHWVRQAPGKGLEGVAVIWYDGSNRYYADSVKGRFTISRDNSKNTLYLQMNSLRAEDTAVYYCAREPRIGYYYESSGYYSLDYRGQGTLVTVSS
notes: as for B5
fold over the background MFI signal [6]: 64 fold over background
